From the supplement of paper PMC7125110
± gives the standard error. This sample holds only a part of the variants without activity.

B1: glmS ribozyme (parent)
chain: AUAAAAGCGCCAGAACUACAGAAAUGUAGUUGACGAGGAGGAGGUUUAUCGAAUUUUCGGCGGAUGCCUCCAAA

Variants of: B1
Experiment: self-cleavage kobs at 640 uM GlcN6P; higher = faster cleavage; RNA array
Conditions: with glucosamine-6-phosphate
Procedure, shortened: (§1)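 Barcoded ribozyme variants, transcribed in situ by E. coli RNA polymerase on sequenced MiSeq chips, were followed via a hybridised Cy3 probe at 37 °C. Glucosamine-6-phosphate ranged from 40 μM to 10 mM in HEPES/KCl/Mg(OAc)2 buffer. kobs came from decay fits to per-tile medians, and kcat and KM from weighted Michaelis–Menten fits.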

Variant | self-cleavage kobs at 640 uM GlcN6P [s⁻¹]
AUAAAAUCGCCAGAACUACAGAAAUGUAGUUGACGAGGAGGAGGAUUAUCGAGUUGUCGGCGGAUGCCUCCAAA [G7U U45A A53G U56G] | < 1e-05
AUAAAAACGCCAGAACUACAGAAAUGUAGUUGACGAGGAGGCGGUUUAUCGGAUAUUCGGCGGAUGCCUCCAAA [G7A A42C A52G U55A] | < 1e-05
AUAAAUGCGCGAGCACUACAGAAAUGUAGUUGACGAGGAGUAGGUUUAUCGAAUUUUCGGCGGAUGCCUCCAAA [A6U C11G A14C G41U] | < 1e-05
AUAAAACCGCCAGAACUACAGAAAUGUAGUUGACGAGGAGGAGGUUUCUCGAAUUUUCGGCGGAUGCCUACAAA [G7C A48C C70A] | < 1e-05
AUAAAUGCGCCAAAACUACAGAAAUGUAGUUGACGAGGAGGAGGUUUAUCGAAUUUUCGGCGGAUGCCUCAAAA [A6U G13A C71A] | < 1e-05
AUAAAAACGCCAGAACUACAGAAAUGUAGUUGACGAGGAGGAUGUUUAGCGAAUUUUCGGCGCUUGCCUCCAAA [G7A G43U U49G G63C A64U] | < 1e-05
AUAAAGGCGCCAGAACUACAGAAAUGUAGUGGACGAGGAGGAGGAUUAUCGAGUUUUCGGAGGAUCCCUCCAAA [A6G U31G U45A A53G C61A G66C] | < 1e-05
AUAAAAUCGCCAGACCUACAGAAAUGUAGUUGACGAGGCGGAGGUUUAUCGAAUUUUCGGCGGAUGCCUCCAAA [G7U A15C A39C] | < 1e-05
AUAAAAACGCCAGAACUACAGAAAUGUAGUUGACGAGAAGGAGGUUUAUCGAAUUUUCGGCGUAUGCCUGCAAA [G7A G38A G63U C70G] | 0.000112 ± 3.6e-05
AUAAAACCGCCGGAACUACAGAAAUGUAGUUGACGAGGAGGAGGUGAAUCGAAUUUUCGGCGGAUGCCUCCAAA [G7C A12G U46G U47A] | < 1e-05
AUAAAUGCGCCAGAACUACAGAAAUGUAGUUGACGCGGAGGAGGUUUAUCCAAUUUUCGGCGGAUGCCUCCAAA [A6U A36C G51C] | < 1e-05
AUAAAAACGCCAGAACUACAGAAAUGUAGUUGACGACGUGGAGGUUGAUCGAAUUUUCGGCGGAUGCCUCCAAA [G7A G37C A39U U47G] | < 1e-05
AUAAAAUCGCCAGAACUACAGAAAUGUAGUUGACGAGGAGGAGGUUUAUCGAAUUUUCGGUGGAUGCGUCCAAA [G7U C61U C68G] | 0.00114 ± 0.00049
AUAAAGGCGCCAGAACUACAGAAAUGUAGUCGACGAGGAGGAGGUUUAUCGAAUUUUCAGCGGAUGCCUCCAAA [A6G U31C G59A] | < 1e-05
AUAAAAUCGCCAGAACUACAGAAAUGUAGUUGACGAGGAGAAGGUUUAUCGAAUUUUCGGCGGAUGCCGCCAAA [G7U G41A U69G] | < 1e-05
AUAAAAUCGCCAGAACUACAGAAAUGUAGUUGACGAGGCGGAGGUUUAUCGAAUUUGCGGCGCAUGCUUCCAAA [G7U A39C U57G G63C C68U] | < 1e-05
AUAAAACCGCCAGAACUACAGAAAUGUAGUUGACGAGGAGGAGGUUUAUCGAAUUGUCGGCGGAUGUCUCCAAA [G7C U56G C67U] | < 1e-05
AUAAAAACGUCAGAACUACAGAAAUGUAAGUGACGAGGAGGAGGUUUAUCGAAUUUUCGGCGGAUGCCUCCAAA [G7A C10U G29A U30G] | < 1e-05
AUAAAAUCGCCAGAACUACAGAAAUGUAGUUGACGAGGAGGAGGUUUAUCGAAUUUUCGGCGGAUGCCUACAAA [G7U C70A] | 0.000596 ± 0.00023
AUAAAUGCCCCAGAACUACAGAAAUGUAGUUGACGAGGAGGAGGUUUAUCGUAUUUUCGGCGGAUGACUUCAAA [A6U G9C A52U C67A C70U] | < 1e-05
AUAAAAUCGCCAGAACUACAGAAAUGUAGUUGACGAGGAGGAGGUUUAUCGAAAUUUCGGCGGAUGCCUCCAAA [G7U U54A] | < 1e-05
AUAAAAUCGCCAUAUCUACAGAAAUGUAGUUGACGAGGAGGAGGUUUAUAAAAUUUUCGUCGGAUGACUCAAAA [G7U G13U A15U C50A G51A G60U C67A C71A] | 0.000375 ± 0.00012
AUAAAAACGCCAGAACUACAGAAAUGUAGUUGACGAGGAAGCGGUUUAUCGAAUUUUCGGCGGAUGGCUCCAAA [G7A G40A A42C C67G] | < 1e-05
AUAAAUGUGCCAGAUCUACAGAAAUGUAGUUCAAGAGGAGGAGGUUUAUCGAAUUUUCGGGGGAUGCCUCCAAA [A6U C8U A15U G32C C34A C61G] | < 1e-05
AUAAAACCGCCAGAACUACAGAAAUGUAGUCGACGAGGACGAGGUUUAUCGAAUUUUCGGCGGAUGCCUCCAAA [G7C U31C G40C] | < 1e-05
AUAAAAUCGCCAGAACUACAGAAAUGUAGUUGACGAGGAGGAGGUUUAUCGAUUUUUCGGCGGGUGCCUCCAAA [G7U A53U A64G] | < 1e-05
AUAAAAACGCCAGAAGUACAGAAAUGUAGUUGACGAGGAGGAGGUUUUUCGAAUUUUCGCCGGAUGCCUACAAA [G7A C16G A48U G60C C70A] | < 1e-05

Variants of: B1
Experiment: self-cleavage kobs at 2500 uM GlcN6P; higher = faster cleavage; RNA array
Conditions: with glucosamine-6-phosphate
Procedure, shortened: as §1

Variant | self-cleavage kobs at 2500 uM GlcN6P [s⁻¹]
AUAAAAACGCCAGAACUACAGAAAUGUAGUUGACGAGGAGGCGGUUUAUCGGAUAUUCGGCGGAUGCCUCCAAA [G7A A42C A52G U55A] | < 1e-05
AUAAAUGCGCGAGCACUACAGAAAUGUAGUUGACGAGGAGUAGGUUUAUCGAAUUUUCGGCGGAUGCCUCCAAA [A6U C11G A14C G41U] | < 1e-05
AUAAAAACGCCAGAACUACAGAAAUGUAGUUGACGAGGAGGAUGUUUAGCGAAUUUUCGGCGCUUGCCUCCAAA [G7A G43U U49G G63C A64U] | < 1e-05
AUAAAUGCGCCAGAACUACAGAAAUGUAGUUGACGCGGAGGAGGUUUAUCCAAUUUUCGGCGGAUGCCUCCAAA [A6U A36C G51C] | < 1e-05
AUAAAAUCGCCAGAACUACAGAAAUGUAGUUGACGAGGCGGAGGUUUAUCGAAUUUGCGGCGCAUGCUUCCAAA [G7U A39C U57G G63C C68U] | < 1e-05
AUAAAAUCGCCAGAACUACAGAAAUGUAGUUGACGAGGAGGAGGUUUAUCGAAAUUUCGGCGGAUGCCUCCAAA [G7U U54A] | < 1e-05
AUAAAAACGCCAGAACUACAGAAAUGUAGUUGACGAGGAAGCGGUUUAUCGAAUUUUCGGCGGAUGGCUCCAAA [G7A G40A A42C C67G] | < 1e-05
AUAAAACCGCCAGAACUACAGAAAUGUAGUCGACGAGGACGAGGUUUAUCGAAUUUUCGGCGGAUGCCUCCAAA [G7C U31C G40C] | < 1e-05
AUAAAAUCGCCAGAACUACAGAAAUGUAGUUGACGAGGAGGAGGUUUAUCGAUUUUUCGGCGGGUGCCUCCAAA [G7U A53U A64G] | < 1e-05
AUAAAAACGCCAGAAGUACAGAAAUGUAGUUGACGAGGAGGAGGUUUUUCGAAUUUUCGCCGGAUGCCUACAAA [G7A C16G A48U G60C C70A] | < 1e-05

Variants of: B1
Experiment: self-cleavage kobs at 10000 uM GlcN6P; higher = faster cleavage; RNA array
Conditions: with glucosamine-6-phosphate
Procedure, shortened: as §1

Variant | self-cleavage kobs at 10000 uM GlcN6P [s⁻¹]
AUAAAAUCGCCAGAACUACAGAAAUGUAGUUGACGAGGAGGAGGUUUAUCGAAAUUUCGGCGGAUGCCUCCAAA [G7U U54A] | < 1e-05
